Experimental data reported in PMC7268104, “WRKY Transcription Factor OsWRKY29 Represses Seed Dormancy in Rice by Weakening Abscisic Acid Response”.

B1: OsVP1 promoter V3 probe (dsDNA)
DNA 1: CGGTCAAAACCAGCACGCGCCGAAATCCCGTACTTCCCACTGACACGTAGGCCCCACTGTCATTGACCG
DNA 2: CGGTCAATGACAGTGGGGCCTACGTGTCAGTGGGAAGTACGGGATTTCGGCGCGTGCTGGTTTTGACCG
B2: OsABF1 promoter A1 probe (dsDNA)
DNA 1: AGCGTTAAAGCCATATGTTAAGAACGCGTTGACGAGAAGCTCGAGTTTGAGGTTATGGCC
DNA 2: GGCCATAACCTCAAACTCGAGCTTCTCGTCAACGCGTTCTTAACATATGGCTTTAACGCT
B3: OsVP1 promoter V1 probe (dsDNA)
DNA 1: TCAACCTACCATATCGCTCAAATGATTGTTGACCTGTAACACCCAACGACCTTTATTTAC
DNA 2: GTAAATAAAGGTCGTTGGGTGTTACAGGTCAACAATCATTTGAGCGATATGGTAGGTTGA

molecular target: OsWRKY29-MBP (Oryza sativa (rice; cv. Hwayoung?), UniProt Q6IEQ2 1-288); assay: EMSA; unlabeled probe competes dose-dependently; LightShift Chemiluminescent EMSA kit binding buffer, 1 ug protein in 20 ul, room temperature, 30 min; 6.5% native PAGE, 0.5x TBE; salt and pH not stated; conditions: protein: recombinant; tags: MBP (pMAL-c2x fusion); blunt
Sequence (Q6IEQ2 entry or part of it): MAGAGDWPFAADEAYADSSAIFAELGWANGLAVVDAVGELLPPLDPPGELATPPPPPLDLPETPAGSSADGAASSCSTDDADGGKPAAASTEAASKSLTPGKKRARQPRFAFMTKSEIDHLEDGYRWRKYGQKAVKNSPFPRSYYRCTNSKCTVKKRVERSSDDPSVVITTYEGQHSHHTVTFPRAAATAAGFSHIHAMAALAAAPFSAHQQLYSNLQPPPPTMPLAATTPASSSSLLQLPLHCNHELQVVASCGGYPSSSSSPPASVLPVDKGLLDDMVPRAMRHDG

Binding result, binds:
B1, B2, B3
